For this assay, the target named is Strep-SUMO-Bos1.

Sequence of Ssa1 (P10591 whole entry): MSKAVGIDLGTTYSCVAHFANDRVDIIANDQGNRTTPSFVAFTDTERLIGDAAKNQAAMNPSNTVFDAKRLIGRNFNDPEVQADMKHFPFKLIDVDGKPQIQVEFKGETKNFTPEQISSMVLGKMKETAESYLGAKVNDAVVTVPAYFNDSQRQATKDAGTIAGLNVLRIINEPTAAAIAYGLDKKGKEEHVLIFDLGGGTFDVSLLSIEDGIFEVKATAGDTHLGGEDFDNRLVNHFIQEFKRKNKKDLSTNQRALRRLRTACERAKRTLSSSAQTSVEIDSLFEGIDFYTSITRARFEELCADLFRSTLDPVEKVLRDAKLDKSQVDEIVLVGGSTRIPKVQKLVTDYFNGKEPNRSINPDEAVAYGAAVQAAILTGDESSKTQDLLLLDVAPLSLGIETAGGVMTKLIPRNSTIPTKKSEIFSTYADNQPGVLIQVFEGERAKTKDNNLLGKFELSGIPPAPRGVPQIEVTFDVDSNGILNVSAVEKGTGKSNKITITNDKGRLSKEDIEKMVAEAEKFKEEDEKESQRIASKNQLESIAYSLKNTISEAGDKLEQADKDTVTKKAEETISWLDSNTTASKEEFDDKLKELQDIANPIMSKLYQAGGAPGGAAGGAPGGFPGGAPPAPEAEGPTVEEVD

“Ssa1 (from UniProt P10591 1-642) (natural protein)” gave a K (Soluble) from the Ssa1 concentration dependence of soluble Bos1 (sedimentation of 3 μM Bos1, Western blot, fit to Equation 2), Ssa1 alone of 0.73 µM; a K (Soluble) from the Ssa1 concentration dependence of soluble Bos1 (sedimentation of 3 μM Bos1, Western blot, fit to Equation 2), equimolar Ssa1 and Ydj1 of 0.014 µM.

The values are drawn from publication PMC8054193.
